{"source": "the DeepSol protein solubility set", "data": [{"assay": "soluble on expression in E. coli; label from the status in PepcDB or PDB records", "values": [{"sequence": "MGSSHHHHHHSSGLVPRGSHMAPIVETAKETNSDSSLYLDLMIKVLAGTVYEDPAHRENFSHRDSTYREEVRNEGRDWPANAHTMIGIKRLENIRQCVEDVIGNNVPGDLVETGVWRGGACILMRGILRAHDVRDRTVWVADSFQGIPDVGEDGYAGDRKMALHRRNSVLAVSEEEVRRNFRNYDLLDEQVRFLPGWFKDTLPTAPIDTLAVLRMDGDLYESTWDTLTNLYPKVSVGGYVIVDDYMMCPPCKDAVDEYRAKFDIADELITIDRDGVYWQRTR", "soluble on expression in E. coli": "soluble"}, {"sequence": "MSLTDQKPVPVFDGHNDVLLRLWRSGNTSPETLLIEGDTVGHIDLPRARKGGLAGGLCAIYVPSPSMEKDANGDFSTPTEADALKATLGMAALLFRAEKQSAGALKVCRTAADIRSAMAEGAFASVFHIEGAEAIGDDLDALHVLHEAGLRTLGPVWSRPNIFAYGVPFRFPSTPDIGPGLTDTGKRLVKTCNELKIMVDLSHMNEQGFWDIAKISDAPLVASHSNAYALCNHSRNLTEGHHHHHH", "soluble on expression in E. coli": "soluble"}, {"sequence": "MAVNLLKKNSLALVASLLLAGHVQATELLNSSYDVSRELFAALNPPFEQQWAKDNGGDKLTIKQSHAGSSKQALAILQGLKADVVTYNQVTDVQILHDKGKLIPADWQSRLPNNSSPFYSTMGFLVRKGNPKNIHDWNDLVRSDVKLIFPNPKTSGNARYTYLAAWGAADKADGGDKGKTEQFMTQFLKNVEVFDTGGRGATTTFAERGLGDVLISFESEVNNIRKQYEAQGFEVVIPKTNILAEFPVAWVDKNVQANGTEKAAKAYLNWLYSPQAQTIITDYYYRVNNPEVMDKLKDKFPQTELFRVEDKFGSWPEVMKTHFTSGGELDKLLAAGRN", "soluble on expression in E. coli": "soluble"}, {"sequence": "MDPLLTLLYIRHTLTSPWSSSEERDTAKAAMMEEMEKHNMAPYIRLVCEALGVPLDESKLAEMDAINAKKVAAFDARLKDAVDNLGDTEVRDVLQAKCDHYARIGDLEMCMKTNEECAAKTLATGPKLDLYFQRIRLGIAFSDNDIAAKGITDAHRLMKDGDWERRNRLRVYEGIYHVFIRDFQRGSTLLLDSITTFAAGELLTFQDFVFITVVASLPVLSRPELRKRIVYSPEVNRTGVDDVRELVNSIYDCQYNKVFPNLEVVCQHLRKVVYLSPHVSYFFREMRVLIFTQFLDSYSSVTLESMGAAFGIPVPALDSMLCTLISNERIACKVDRVDGSVETYRGDTTNFDYHRIVKSGDLLLNRIQKLSRLVDM", "soluble on expression in E. coli": "not soluble"}, {"sequence": "MGSDKIHHHHHHMNLEQILLAISNPNDNELTIAGLEAAKVNWSVFYPELERLMDQFIADDTSLTDEQEAIVFFGTLLLAELKYSPALAKCLQLFARSDTYLTPIEAIFGDALTELTATLFFNVADGSTQTLSDYIVDGHQAMYCKASAIEAVFAQYEVGVIDKTELVEHVTRWLAAFLALPSSNNSFLISVLADSCIKYQLDDFKPQFIDLCDNDLFDEDRFKQCEVKAWDKANAAKLIESGNIQTKFNVVDTLNAWIVDDSNNEVADNMSNEDSDAFESLMGEDGLLADILYDENTILENSVPVSSLPTAGRNDPCPCGSGKKYKKCCLR", "soluble on expression in E. coli": "not soluble"}, {"sequence": "MLTIPEKENRGSKEQEVAIMIDALADKGKKALEALSKKSQEEIDHIVHQMSLAAVDQHMVLAKLAHEETGRGIYEDKAIKNLYASEYIWNSIKDNKTVGIIGEDKEKGLTYVAEPIGVICGVTPTTNPTSTTIFKAMIAIKTGNPIIFAFHPSAQESSKRAAEVVLEAAMKAGAPKDIIQWIEVPSIEATKQLMNHKGIALVLATGGSGMVKSAYSTGKPALGVGPGNVPSYIEKTAHIKRAVNDIIGSKTFDNGMICASEQVVVIDKEIYKDVTNEFKAHQAYFVKKDELQRLENAIMNEQKTGIKPDIVGKSAVEIAELAGIPVPENTKLIIAEISGVGSDYPLSREKLSPVLALVKAQSTKQAFQICEDTLHFGGLGHTAVIHTEDETLQKDFGLRMKACRVLVNTPSAVGGIGDMYNELIPSLTLGCGSYGRNSISHNVSATDLLNIKTIAKRRNNTQIFKVPAQIYFEENAIMSLTTMDKIEKVMIVCDPGMVEFGYTKTVENVLRQKTEQPQIKIFSEVEPNPSTNTVYKGLEMMVDFQPDTIIALGGGSAMDAAKAMWMFFEHPETSFFGAKQKFLDIGKRTYKIGMPENATFICIPTTSGTGSEVTPFAVITDSETNVKYPLADFALTPDVAIIDPQFVMSVPKSVTADTGMDVLTHAMESYVSVMASDYTRGLSLQAIKLTFEYLKSSVEKGDKVSREKMHNASTLAGMAFANAFLGIAHSIAHKIGGEYGIPHGRANAILLPHIIRYNAKDPQKHALFPKYEFFRADTDYADIAKFLGLKGNTTEALVESLAKAVYELGQSVGIEMNLKSQGVSEEELNESIDRMAELAFEDQCTTANPKEALISEIKDIIQTSYDYKQ", "soluble on expression in E. coli": "not soluble"}, {"sequence": "MSLKIKSIKAITLSMPFSHGGKKVIFHGKEWKSLEFNLVKVETDKGIIGWGEAFGYTSWKAVKIAIEDMVAPLLVGKDMTNIPELILILQKSLHLFGRYGITMFAISGVEIALWDALGKEKNKPIHELLGKKNKDLFKAYSSLFRYGDPKIVEQKCKQSLDDGYQAIKLHEIENNCIEAGRKGTGNLPLMLDTNCPWTYEETLAKKNFLQEMRLTWLEEPIYPPEDYQTLAKLKKELDIPIACGENACTEFEFKSIIDQNAVTYVQPSVIKVGGIYEMFKIIQHAEKNNILVMPHTAYFGPGFLATLQLASLMKNETYIERFYLDIDQEFYPNFKRALNGKYKLPSGPGLGIDLDYKKLSKYEIEGHHHHHH", "soluble on expression in E. coli": "soluble"}, {"sequence": "MGHHHHHHSHMNCCGIWPFGKPGVPYKRLADVETDERMEMEIRLGMPPGVLAADLIRSTKDKQVLEQLYLLAVQANNLTEHIKRFTLGEIPEECKNVTRSQLEKLKSVQHIIWNTMISLAAGAISVDEATLPALLDKRAEETVALLEMEKIATAVKLDETAAWATDIAGIVSSQPLATPPSESPDQIALKKATQLSNAVY", "soluble on expression in E. coli": "soluble"}, {"sequence": "MKYTFLLLCAIFGCTLAMRQQSVAVSGKLMCGSKPASGVKVKLWDEDDGPDPDDVLDEGFTNNDGTFRLEGSERELTNIDPVFKVYHDCDDGIIPGQRKIKFRIPNKYISAGGRAQKTFEIGVLNLETIFPKEERDLL", "soluble on expression in E. coli": "not soluble"}, {"sequence": "MQHHGVTKCNITCSKMTSKIPVALLIHYQQNQASCGKRAIILETRQHRLFCADPKEQWVKDAMQHLDRQAAALTRNG", "soluble on expression in E. coli": "soluble"}, {"sequence": "GMPKANLEIIRSTYEGSASSNAKHLAEALSEKVEWTEAEGFPYGGTYIGVEAIMENVFSRLGSEWNDYKASVNMYHEVSGKDVIIAEGMYSGVYKDTGKSFEAEFVHVWQLENGKIVKFKQYVDSHLVREAMKS", "soluble on expression in E. coli": "soluble"}, {"sequence": "MSLHEMSFAEAIIRNVLRFAEEKQAKTVTSVRVRVGELLLINPEQLQFCFSVASKGTIAEGAKLEISVERADIRCLLCGRELSKDEMLCECGGFAQVKGGKDFILESVVVEVEGHHHHHH", "soluble on expression in E. coli": "soluble"}, {"sequence": "MEGMDPLAVLAESRLLPLLTVRGGEDLLGLARVLEEEGVGALEITLRTEKGLEALKALRKSGLLLGAGTVRSPKEAEAALEAGAAFLVSPGLLEEVAALAQARGVPYLPGVLTPTEVERALALGLSALKFFPAEPFQGVRVLRAYAEVFPEVRFLPTGGIKEEHLPHYAALPNLLAVGGSWLLQGNLEAVRAKVRAAKALLSPQAPG", "soluble on expression in E. coli": "soluble"}, {"sequence": "MYTNSDFVVIKALEDGVNVIGLTRGADTRFHHSEKLDKGEVLIAQFTEHTSAIKVRGKAYIQTRHGVIESEGKKAAAAAAA", "soluble on expression in E. coli": "soluble"}, {"sequence": "MKTLSPAVITLLWRQDAAEFYFSRLSHLPWAMLLHSGYADHPYSRFDIVVAEPICTLTTFGKETVVSESEKRTTTTDDPLQVLQQVLDRADIRPTHNEDLPFQGGALGLFGYDLGRRFESLPEIAEQDIVLPDMAVGIYDWALIVDHQRHTVSLLSHNDVNARRAWLESQQFSPQEDFTLTSDWQSNMTREQYGEKFRQVQEYLHSGDCYQVNLAQRFHATYSGDEWQAFLQLNQANRAPFSAFLRLEQGAILSLSPERFILCDNSEIQTRPIKGTLPRLPDPQEDSKQAVKLANSAKDRAENLMIVDLMRNDIGRVAVAGSVKVPELFVVEPFPAVHHLVSTITAQLPEQLHASDLLRAAFPGGSITGAPKVRAMEIIDELEPQRRNAWCGSIGYLSFCGNMDTSITIRTLTAINGQIFCSAGGGIVADSQEEAEYQETFDKVNRILKQLEK", "soluble on expression in E. coli": "soluble"}, {"sequence": "MPELPEVETIRRTLLPLIVGKTIEDVRIFWPNIIRHPRDSEAFAARMIGQTVRGLERRGKFLKFLLDRDALISHLRMEGRYAVASALEPLEPHTHVVFCFTDGSELRYRDVRKFGTMHVYAKEEADRRPPLAELGPEPLSPAFSPAVLAERAVKTKRSVKALLLDCTVVAGFGNIYVDESLFRAGILPGRPAASLSSKEIERLHEEMVATIGEAVMKGGSTVRTYVNTQGEAGTFQHHLYVYGRQGNPCKRCGTPIEKTVVAGRGTHYCPRCQR", "soluble on expression in E. coli": "soluble"}, {"sequence": "MGSDKIHHHHHHMSQIPVAEKLVGALSSGLAVLRYLAGMPTPVGVTRVARDLELNSSTCFNLLKTLVHEGLVTFDERTKTYTIGIGLVELAKGALDQASFARLLRPQLESIAQQHKVTATLWERTRNERVVLVDLADNPAAMRVHMSIGQRLPMYLAALGRCMAAYSELSADELRTRIESFRWENAPSFEEYYAEVQDVKERGYAVDNGNYVKGVTTVSAPVIDANKRAVMAISAVSFSAQLNRAAIRALGEDLGARAIEASRAISGRVRAA", "soluble on expression in E. coli": "not soluble"}, {"sequence": "MGSDKIHHHHHHMKKIAIFCHNFFSNGTVKIALSQAEVLQEAGQDVHLFVFHKEGDFMPPENVTIHYLYDAGQKPSLQEQRQHLKAKVAEAEQSGKFSLFLSNSTDCDVVVSGCDFEPCYYFCHCALKQELLMELKRGPVHFWRRWKKAKALIGKKIITVSNGIADELRATSWLKPQSVQTIYNPFRLEEIRKKTQEVIAEIPNVPYMIHVGRVTRQKRHDILFKALRDMPTAPKLVLLCNRPKKARKLAKKYGVEHRIITPGFQHNPYAWIAKAELMLLSSDFEGLPTVVIESLACGTPVVSTDCPHGPNEILTGHLAQYLVPVRQPALLAQKALECLASPPALDNLEILKAVDSQYIAAQYINLAQ", "soluble on expression in E. coli": "not soluble"}, {"sequence": "MPFIDLQSKLGINVDKWLLAQSGEQPRKRAAFCHAFEKEWIECSHAIGKTRASKECNIEWEDFYECMHRFKTMKRLKEISTQKEKMIKEGTYTPPPHHTGKGEPLS", "soluble on expression in E. coli": "not soluble"}, {"sequence": "MAHHHHHHMPLRIGGFNVCCYHDCTNAAAIHAELKRRHIDAAVVDHAFLISPLQLAVALFRVEGSADMLTTRSPFTISPPLAEASSPSPTSTSASPSLPPLLQQQPTRRVSNSRQIFAALSLSHNLDRILQVLPPGPQTTSVVIIYKRSGSARAAAVSFADDVGADSAVASTVPDGDGLDATINACVQLTNSAAQAHTFALITEPFWTGAAFAFADVSKVALFYGISESMLLAAQRSMTRADVRRVCVGAESQEAPAQVLRWHALEVCVTTLLSACTA", "soluble on expression in E. coli": "soluble"}, {"sequence": "MSLRDLKTLLIVIDGVSYSVFNQFRYNLDTMNNLIENGSFGKLESVFPTITPVALASLFTGYLPLNHGITSTKIFIKGNSLSKPLSAHSSTPLKVDPIWYLLAKKGYKVVVASAPQALPDKWKLKNLTLFDPYKSKIKECSDGALLNIGNTTINEVNFDIESNNNEYTIKITDIENNTLSLKLRQNEWTSPLEVIMGCKGKEMKGTFRLKGLSNGVYLTPVSFLIPSWSNNQELQNEIWENVVKKYGMLLDGDYISLKSNIIGFSEYYETLKFAYEFFYNYSLYLLKREEWDFAITYLPIVDNIQHLLFGVDDSQSLDYVFQVYKMADNFVKAHIELADNIIICSDHGINKVKKRLYLNKFLEELNVLKTVDDKKIDWKRTKAYYGGGGIIRINLREREKFGIVGKKEFNKLIKYLTINLERLEDPDTGERIFTVIYSNETPASDRQGDIMIDGVNPKYSISSNIEKDTIFENVIPYRTTTADHGYYRNDDINGIIIFYGKNFTKKQVNMKIVDVTPTILKLYGINCKSDGKIVNEVFKNGHADSTKEGHHHHHH", "soluble on expression in E. coli": "not soluble"}, {"sequence": "MAAHSSAGLLDYVFPTIVSEYYNQAPTKEGYRFASEEPNGSKREEMGVIMNPGTPDEQLVVMGMYSSYDEKTDTETVTMYTADKDGYKARYQIKNRKLSPGALKSAAGLEHHHHHH", "soluble on expression in E. coli": "not soluble"}]}]}
